# Results from PMC5621659.
# Experiments:
# Experiment in all cases: ELISA
# [1] = target: recombinant human insulin receptor (IR) (human) (UniProt P06213)
# [2] = target: C-terminal truncated apoE3 (aa1-186)
# [3] = target: C-terminal truncated apoE4 (aa1-186)
percent reduction of insulin-IR binding at 16 μg/ml [1] [%],percent reduction of binding against FL apoE [2] [%],percent reduction of binding against FL apoE [3] [%],Substance
50,–,–,recombinant human apoE4 (from UniProt P02649 19-317) (natural protein)
–,50,30,recombinant human insulin receptor (IR) (from UniProt P06213 28-1382)
